Reference: PMC3103430, “RecA Proteins from Deinococcus geothermalis and Deinococcus murrayi - Cloning, Purification and Biochemical Characterisation”

Tests used:
DmuRecA = DmuRecA (Deinococcus murrayi DSM 11303, UniProt E7CG23 1-359); test: EMSA; 8-10 mM Mg2+ (most efficient), ATPgS + ATP, 37 C; 20 mM potassium phosphate pH 7.5, 0-10 mM MgCl2, 110 uM ATPgS + 300 uM ATP (ssDNA, 9 uM RecA) or 180 uM ATPgS + 500 uM ATP (dsDNA, 12 uM RecA), 30 min at 37 C (25-75 C series for ssDNA), 0.8% agarose gel; conditions: protein: recombinant; tags: none (native start and stop codons, NdeI/XhoI in pET-30Ek/LIC); label: 5'-fluorescein
DgeRecA = DgeRecA (Deinococcus geothermalis DSM 11302, UniProt Q1IWF2 1-358); test: as above; conditions: protein: recombinant; tags: none (native start and stop codons, NdeI/HindIII in pET-30Ek/LIC); label: 5'-fluorescein
Sequence of DgeRecA (Q1IWF2 whole entry): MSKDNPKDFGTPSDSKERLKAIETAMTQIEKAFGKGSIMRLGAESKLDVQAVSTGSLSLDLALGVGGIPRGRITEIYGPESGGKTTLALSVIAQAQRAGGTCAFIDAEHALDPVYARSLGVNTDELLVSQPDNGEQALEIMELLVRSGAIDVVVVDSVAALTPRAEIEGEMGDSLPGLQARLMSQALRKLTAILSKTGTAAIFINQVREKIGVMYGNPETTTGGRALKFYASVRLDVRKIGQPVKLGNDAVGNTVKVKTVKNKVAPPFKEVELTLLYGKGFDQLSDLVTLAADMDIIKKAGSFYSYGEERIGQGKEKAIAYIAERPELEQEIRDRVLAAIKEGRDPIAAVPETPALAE

Binder: TTTTTTTTTTTTTTTTTTTTTTTTTTTTTTTTTTT (ssDNA) [oligo(dT)35]
- binding result (DmuRecA): binds
- binding result (DgeRecA): binds
